The results in this text go back to PMC12141716, “An archaeal nucleoid-associated protein binds an essential motif in DNA replication origins” (Nature Communications, 2025).

In this data set the target is T1, UBP (Sulfolobus islandicus REY15A, UniProt F0NFD3 1-111).
T1 sequence: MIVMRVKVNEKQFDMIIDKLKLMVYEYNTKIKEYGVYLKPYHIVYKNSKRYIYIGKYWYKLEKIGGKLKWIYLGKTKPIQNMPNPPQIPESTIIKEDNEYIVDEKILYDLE
The data set is described as follows: thermal melting protection; 55-65 C, 50 mM NaCl; EMSA: 50 mM K-acetate, 20 mM Tris-acetate, 10 mM Mg-acetate, 1 mM DTT, pH 7.9, 5-10% glycerol, 70 mM NaCl, 800 ng salmon sperm DNA per 10 ul, room temperature 10 min; footprinting same buffer, 4% glycerol, 8000 ng salmon sperm DNA; pull-down 25 mM HEPES pH 7.5, 150 mM NaCl, 10 mM MgCl, 100 uM ZnCl, 10 mM DTT, 48 C. The note with it: protein: recombinant; tags: MBP tag removed by Factor Xa; 3 extra vector residues at N-terminus; chain copies: 2; label: 5'-32P; 40 bp duplex with 10 nt C overhangs at 5' and 3' of strand 2. For orientation: Mobility shift assays separate free from complexed probe on a gel.

B1: 40 bp duplex for melting (P19/P20) (dsDNA)
DNA 1: ATAATTAGATAACCATTATACAAAAGAATTGTATAAGAAT
DNA 2: CCCCCCCCCCATTCTTATACAATTCTTTTGTATAATGGTTATCTAATTATCCCCCCCCCC
Turning to B1, the binding result is “binds”.
